{"source": "paper PMC3990580", "key": {"[1]": {"target": "WT extracellular murine leptin receptor Fc (LepRec-Fc) chimera (murine) (UniProt P48356)", "test": "SPR; BiaCore T200, CM5 chip; anti-mouse IgG1 amine-coupled (~2000 RU) captures LepRec-Fc from the concentrated supernatant (100-300 RU); leptin 1.25-60 nM as analyte; 25°C, HBS-EP buffer, 30 µl/min; 600 s association, 1000 s dissociation; global 1:1 Langmuir fit; mean of two experiments"}, "[2]": {"target": "Q223R extracellular murine leptin receptor Fc (LepRec-Fc) chimera (murine) (UniProt P48356)", "test": "SPR; BiaCore T200, CM5 chip; anti-mouse IgG1 amine-coupled (~2000 RU) captures LepRec-Fc from the concentrated supernatant (100-300 RU); leptin 1.25-60 nM as analyte; 25°C, HBS-EP buffer, 30 µl/min; 600 s association, 1000 s dissociation; global 1:1 Langmuir fit; mean of two experiments"}}, "note": "pKd: −log10 of the molar value.", "data": [{"substance": "Recombinant murine leptin (from UniProt P41160 22-167) (ligand)", "values": [{"measurement": "pKd", "setting": "[1]", "result": 10.19}, {"measurement": "koff", "setting": "[1]", "result": 0.000121, "unit": "s⁻¹"}, {"measurement": "kon", "setting": "[1]", "result": "1.76e+06", "unit": "M⁻¹ s⁻¹"}, {"measurement": "pKd", "setting": "[2]", "result": 10.07}, {"measurement": "koff", "setting": "[2]", "result": 0.000147, "unit": "s⁻¹"}, {"measurement": "kon", "setting": "[2]", "result": "1.75e+06", "unit": "M⁻¹ s⁻¹"}]}]}
